Test results: patent US20110229491A1 (published 2011)

Target: T1, MCM5:YFPC fusion protein (Arabidopsis, UniProt O80786 1-727)
T1 construct: BiFC construct expressed in tobacco leaf epidermal cells; not shown: YFPC: fragment with amino acid residues 155-238 of YFP (plasmid pUC-SPYCE)
T1 sequence (looked up): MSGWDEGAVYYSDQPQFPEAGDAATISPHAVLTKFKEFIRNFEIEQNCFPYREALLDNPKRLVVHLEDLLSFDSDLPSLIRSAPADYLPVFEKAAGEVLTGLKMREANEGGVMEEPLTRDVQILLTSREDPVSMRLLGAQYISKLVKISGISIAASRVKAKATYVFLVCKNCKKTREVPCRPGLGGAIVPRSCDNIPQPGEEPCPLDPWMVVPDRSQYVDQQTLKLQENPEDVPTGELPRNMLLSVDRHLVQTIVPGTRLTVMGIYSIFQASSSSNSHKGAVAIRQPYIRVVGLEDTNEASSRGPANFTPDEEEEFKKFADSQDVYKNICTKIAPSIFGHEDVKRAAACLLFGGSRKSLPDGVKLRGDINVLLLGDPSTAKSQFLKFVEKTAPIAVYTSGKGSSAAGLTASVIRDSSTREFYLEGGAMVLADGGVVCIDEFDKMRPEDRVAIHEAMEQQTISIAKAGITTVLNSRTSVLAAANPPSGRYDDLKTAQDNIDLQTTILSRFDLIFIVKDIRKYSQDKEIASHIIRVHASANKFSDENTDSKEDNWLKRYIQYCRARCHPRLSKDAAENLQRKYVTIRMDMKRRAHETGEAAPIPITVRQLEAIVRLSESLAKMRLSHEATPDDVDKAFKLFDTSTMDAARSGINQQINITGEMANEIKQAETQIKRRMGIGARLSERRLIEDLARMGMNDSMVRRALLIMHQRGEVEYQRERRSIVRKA
Test: BiFC in tobacco leaf epidermal cells
Procedure: Full-length open reading frames of ETG1 and MCM5 were transferred into the pH7FWG2 destination vector (Karimi et al., 2002) by LR recombination reaction, resulting in ETG1:EGFP and MCM5:EYFP fusion proteins, respectively. BiFC assay was performed as described by Walter et al. (2004). The coding region of ETG1 was amplified with 5′-[…]-3′ (SEQ ID NO:28) and 5′-[…]-3′ (SEQ ID NO:29) primers, and cloned via BamHI-XhoI into the plasmid pUC-SPYNE (Walter et al., 2004), resulting in the plasmid expressed as the ETG1:YFPN fusion protein; the coding region of MCM5 was also obtained with 5′-[…]-3′ (SEQ ID NO:30) and 5′-[…]-3′ (SEQ ID NO:31) primers, and cloned via SpeI-SalI into the plasmid pUC-SPYCE (Walter et al., 2004) to give rise to the plasmid expressed as the MCM5:YFPC fusion protein.
The Agrobacterium strains containing both BiFC constructs were co-infiltrated into tobacco leaves. Epidermal cell layer of tobacco leaves were assayed for fluorescence using confocal laser scanning microscope (Zeiss) two to four days after infiltration. […] As expected, no fluorescence was detected when any combination with empty vectors was introduced into tobacco cells (FIG. 5, Panel C; ETG1-YFPN and YFPC, YFPN and MCM5-YFPC).

binding result: binds
B1: ETG1:YFPN fusion protein (other, UniProt Q501D5 1-589, looked up)
chain: MGGPAYDCLTNPLGAVRFSFVNALSSGYDPASSVGKDWGVVDLFRHYFSDESAISQVPILDSSSIKWVQPKTLVRFRGMIQDMLGNEFYAGAYKDDSTWRTNKYSDVSQFPEGSSTEIQVWERRLLYCVPVPGKNQWTECSSQELKNRFLDLTGQNREKRVRVDEEMTDSMDSSTLEAGRNGSPFKKMKVGEATSSASESQVPQTSGIPPATSADSLPCLVKIYDSPESDLKLNDVVEFLGVLTFDPIVMMDTDTLDENSDALSEAESVQMPSGKVPRLHCLIHRKLETQHFLHGSSLLPEPKSPQIFKEIRESLMKYLTGLLGNDHIAAQFLLLHLLSKVHGRVDNVAVGKLSLNLIHLNKESMSIFGTQLSGALKSLLPFTQSIPLTIEYLNTASFGPKKDYGINRLMPGVLQIADGTHLILDETELQPGTLNSVGVENANLLKNLLECQKVEYDFQYYKMEMATDVQMLIFSEGKSNIMPADLVLPLQPSQVNSLEVITPETAETWRCYLATCKSLSHSIGQELQQVVENDLVAARQTDRSLGSQDLSRLLTMARMMSVSYGETTLSLEHWQMVLELERLRKERLK
notes: range 1-589;range 1-154; BiFC construct expressed in tobacco leaf epidermal cells; not shown: YFPN: fragment with amino acid residues 1-154 of YFP (plasmid pUC-SPYNE)
